The values that follow come from patent US20150344570A1 (published 2015).

To fix the notation:
T1: FcγRIIb extracellular domain with C-terminal His tag (human, UniProt P31994 43-217)
T1 construct: extracellular domain; also called FcgRIIb; 2b; not shown: His tag at the C terminus
T1 sequence (looked up): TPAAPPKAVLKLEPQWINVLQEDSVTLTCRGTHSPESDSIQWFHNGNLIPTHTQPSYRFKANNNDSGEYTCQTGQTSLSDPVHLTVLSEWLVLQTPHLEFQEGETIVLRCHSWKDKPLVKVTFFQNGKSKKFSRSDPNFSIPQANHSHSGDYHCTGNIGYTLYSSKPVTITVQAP

B1: GpH7-A5/GpH7-B3 variant A327_04F/GpL16-k0 (antibody, human IgG1, kappa)
heavy 1: not shown
heavy 2: not shown
light: DIVMTQSPLSLPVTPGEPASISCQASESLVHSNRNTYLHWYLQKPGQSPQLLIYKVSNRFSGVPDRFSGSGSGTDFTLKISRVEAEDVGVYYCSQNTHVPPTFGQGTKVEIERTVAAPSVFIFPPSDEQLKSGTASVVCLLNNFYPREAKVQWKVDNALQSGNSQESVTEQDSKDSTYSLSSTLTLSKADYEKHKVYACEVTHQGLSSPVTKSFNRGEC
notes: Heterodimerized IgG1 antibody; alteration in the GpH7-B3 chain only; also called He Ab
B2: GpH7-A5/GpH7-B3 variant K326_04F/GpL16-k0 (antibody, human IgG1, kappa)
heavy 1: not shown
heavy 2: not shown
light: B1 light
notes: as for B1
B3: GpH7-A5/GpH7-B3 variant K326_07I/GpL16-k0 (antibody, human IgG1, kappa)
heavy 1: not shown
heavy 2: not shown
light: B1 light
notes: as for B1
B4: GpH7-A5/GpH7-B3 variant A327_15Y/GpL16-k0 (antibody, human IgG1, kappa)
heavy 1: not shown
heavy 2: not shown
light: B1 light
notes: as for B1
B5: GpH7-A5/GpH7-B3 variant A327_20W/GpL16-k0 (antibody, human IgG1, kappa)
heavy 1: not shown
heavy 2: not shown
light: B1 light
notes: as for B1
B6: GpH7-A5/GpH7-B3 variant A327_10E/GpL16-k0 (antibody, human IgG1, kappa)
heavy 1: not shown
heavy 2: not shown
light: B1 light
notes: as for B1
B7: GpH7-A5/GpH7-B3 variant K326_03V/GpL16-k0 (antibody, human IgG1, kappa)
heavy 1: not shown
heavy 2: not shown
light: B1 light
notes: as for B1
B8: GpH7-A5/GpH7-B3 variant A327_08L/GpL16-k0 (antibody, human IgG1, kappa)
heavy 1: not shown
heavy 2: not shown
light: B1 light
notes: as for B1
B9: GpH7-A5/GpH7-B3 variant A327_07I/GpL16-k0 (antibody, human IgG1, kappa)
heavy 1: not shown
heavy 2: not shown
light: B1 light
notes: as for B1
B10: GpH7-A5/GpH7-B3 variant A327_16H/GpL16-k0 (antibody, human IgG1, kappa)
heavy 1: not shown
heavy 2: not shown
light: B1 light
notes: as for B1
B11: GpH7-A5/GpH7-B3 variant K326_06M/GpL16-k0 (antibody, human IgG1, kappa)
heavy 1: not shown
heavy 2: not shown
light: B1 light
notes: as for B1
B12: GpH7-A5/GpH7-B3 variant A327_18N/GpL16-k0 (antibody, human IgG1, kappa)
heavy 1: not shown
heavy 2: not shown
light: B1 light
notes: as for B1
B13: GpH7-A5/GpH7-B3 variant A327_14T/GpL16-k0 (antibody, human IgG1, kappa)
heavy 1: not shown
heavy 2: not shown
light: B1 light
notes: as for B1
B14: GpH7-A5/GpH7-B3 variant A327_09D/GpL16-k0 (antibody, human IgG1, kappa)
heavy 1: not shown
heavy 2: not shown
light: B1 light
notes: as for B1

T2 sequence (P08637 17-208): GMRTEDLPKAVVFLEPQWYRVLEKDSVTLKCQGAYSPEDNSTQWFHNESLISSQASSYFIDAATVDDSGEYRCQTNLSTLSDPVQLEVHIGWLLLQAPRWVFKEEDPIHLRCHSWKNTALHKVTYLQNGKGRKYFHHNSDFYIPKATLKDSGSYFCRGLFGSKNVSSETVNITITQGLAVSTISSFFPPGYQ

The first assay addresses T2, FcγRIIIa extracellular domain with C-terminal His tag (human, UniProt P08637 17-208).
T2 construct: extracellular domain; also called FcgRIIIa; 3a; not shown: His tag at the C terminus
Nature of the assay: SPR (Biacore); He/Con_3a divided by He/Con_2b (FcγRIIb). Background: In SPR one partner is held on a chip, and binding of the other changes the refractive index at the surface.
On to B1, for which the “He_3a/2b (IIIa/IIb)” value is 0.72 ratio.
As for B2, the “He_3a/2b (IIIa/IIb)” value amounted to 0.66 ratio.
For B3, the “He_3a/2b (IIIa/IIb)” value is 0.7 ratio.
For the molecule B4, the “He_3a/2b (IIIa/IIb)” value came out at 0.77 ratio.
Turning to B5, the “He_3a/2b (IIIa/IIb)” value was found to be 0.65 ratio.
Regarding B6, the “He_3a/2b (IIIa/IIb)” value turned out to be 0.49 ratio.
Consider B7, for which the “He_3a/2b (IIIa/IIb)” value was 0.7 ratio.
As for B8, the “He_3a/2b (IIIa/IIb)” value amounted to 0.67 ratio.
For B9, the “He_3a/2b (IIIa/IIb)” value is 0.33 ratio.
As for B10, the “He_3a/2b (IIIa/IIb)” value came out at 0.69 ratio.
As to B11, the “He_3a/2b (IIIa/IIb)” value was determined as 0.7 ratio.
On to B12, for which the “He_3a/2b (IIIa/IIb)” value was 0.54 ratio.
For the molecule B13, the “He_3a/2b (IIIa/IIb)” value is 0.46 ratio.
Regarding B14, the “He_3a/2b (IIIa/IIb)” value was found to be 0.49 ratio.

The target of the next assay is T1, FcγRIIb extracellular domain with …. Put plainly: SPR (Biacore), FcγR as analyte over captured antibody; GpH7-A5/GpH7-B3/GpL16-k0 = 100. The protocol:
(§1) The heterodimerized antibodies He Abs in which one of the H chains was introduced with an alteration were assayed for their binding activities to each activating FcγR and inhibitory FcγR according to the method described in Example 4. […] The activating FcγRs in FIGS. 26, 27, 28, and 29 are FcγRIa, FcγRIIa (R), FcγRIIa (H), and FcγRIIIa, respectively.
(§2) Analysis of interaction between objective antibody and the FcγR was carried out using Biacore T100 (GE Healthcare). HBS-EP+ (GE Healthcare) was used as the running buffer, and the measurement temperature was set to 25° C. Chips produced by immobilizing the antigen peptide by the amine coupling method to a Series S Sencor Chip CM5 (GE Healthcare), or alternatively, chips produced by allowing preliminarily biotinylated antigen peptides to interact with and immobilize onto a Series S Sensor Chip SA (certified) (GE Healthcare) were used. Antibodies of interest were captured onto an antigen peptide-immobilized chip, and allowed to interact to each FcγR diluted with running buffer. To regenerate and repeatedly use the chip, the antibodies captured on the chip were washed off by reacting 10 mM glycine-HCl, pH 1.5.
As for B1, the He/Con_2b was 63.7 % of control.
B2: the He/Con_2b is 155 % of control.
With B3, the He/Con_2b was 199 % of control.
Take B4: the He/Con_2b is 60.8 % of control.
For B5, the He/Con_2b was 78.8 % of control.
On the same count and under the same terms, as for B6, the figure is 140 % of control; as for B7, 175 % of control; as for B8, 63.1 % of control.
As to B9, the He/Con_2b is 127 % of control.
Turning to B10, the He/Con_2b is 63.5 % of control.
For B11, the He/Con_2b was 165 % of control.
Still for that read-out and setting: as for B12, the figure is 113 % of control.
For B13, the He/Con_2b was 89.4 % of control.
For the molecule B14, the He/Con_2b is 172 % of control.

Another assay concerns the target T2, FcγRIIIa extracellular domain with …. Described as above. The procedure: as §1, §2
Consider B1, for which the He/Con_3a is 46.2 % of control.
The same measure, in the same setting: to B2 belongs 103 % of control; to B3, 139 % of control; to B4, 46.8 % of control.
Still for that read-out and setting: to B5 belongs 51.2 % of control.
On to B6, for which the He/Con_3a is 68.6 % of control.
The same measure, in the same setting: to B7 belongs 122 % of control; to B8, 42 % of control; to B9, 42.4 % of control.
Take B10: the He/Con_3a is 43.7 % of control.
B11: the He/Con_3a was 115 % of control.
Consider B12, for which the He/Con_3a was 61.1 % of control.
With B13, the He/Con_3a is 41.4 % of control.
As for B14, the He/Con_3a was 83.7 % of control.
